Test results published in PMC7523096 (bioRxiv, 2020).
Substitutions are numbered along the chain they refer to.

Experiments:
Assay in all cases: BLI
[1] = target: SARS-CoV-2 N-terminal domain-NTD (residue 1-290) (SARS-CoV-2, Wuhan-Hu-1 (MN908947), UniProt P0DTC2)
[2] = target: SARS-CoV-2 receptor-binding domain-RBD (residue 320-527) (SARS-CoV-2, Wuhan-Hu-1 (MN908947), UniProt P0DTC2)
[3] = target: SARS-CoV-2 RBD-SD1 (residue 320-591) (SARS-CoV-2, Wuhan-Hu-1 (MN908947), UniProt P0DTC2)
[4] = target: SARS-CoV-2 RBD-SD1-2 (residue 320-681) (SARS-CoV-2, Wuhan-Hu-1 (MN908947), UniProt P0DTC2)

Measured: binding result

B1: CC9.1 mAb (antibody, V domains shown)
VH: EVQLVESGGGLVQPGRSLRLSCVAPGFTLGGYGMHWVRQAPGKGLEWVGLISYDGSVQKYGSSVKGRFTISKDNSKNTLYLEMNSLRADDTAVYFCVKGASLGDNWGQGTLVTVSS
VL: EIVMTQSPLSLPVTLGQPASISCRSSQSLVYSDGDTYMSWFHQRPGQSPRRLIYKVSNRDSGVPDRFSGSGSGTDFTLKISRVEAEDVGVYYCMQGTHWPYTFGPGTKVEIK
no binding: all assays above

B2: CC9.2 mAb (IgG) (antibody, V domains shown)
VH: B1 VH
VL: B1 VL with S61F
no binding: all assays above

B3: CC9.3 mAb (IgG) (antibody, V domains shown)
VH: QVQLQESGPGLVKPSETLSLTCTVSGGSIRSDFWSWIRQFPGKGLEWIGYIYYSGSTNYNPSLESRVTISVDTSKNEFSLKLNYVTAADTAIYYCARETRWNWLDSWGQGTLVTVSS
VL: DIVMTQSPDSLAVSLGERASINCKSSQTISYISNNKNYLAWYQQKPGQPPRLLIYWASTRESGVPDRFSGGGFGTDFTLTISSLQAEDVAVYYCQQYFNTPWTFGQGTKVEIK
no binding: all assays above

B4: second SARS-CoV-2/HCoV-HKU1 cross-reactive mAb from the CC40 donor (other than CC40.8; name not printed in the text) (antibody, V domains shown)
VH: EVQLVESGGGVVQPGRSLRLSCVASGFTFSNYGMHWVRQAPGKGLEWVAVMSYDGSVTYYGDSVRGRFTISRDNSKNTLYLQMSSLRTDDTGVYYCAKGQPLDDIWGLGTLVTVSS
VL: EIVMTQSPLSLPVSLGQSASISCRSSQSLVHTDGITYLSWFQQRPGQSPRRLLYKVSNRDSGVPDRFSGSGSGTDFTLKISRVEAEDVGVYYCLQGTYWPWTFGQGTKVEIK
no binding: all assays above

B5: CC40.8 mAb (IgG) (antibody, V domains shown)
VH: EVQLLESGGGLVQPGGSLRLSCAASGFTFSSYVMTWARQAPGKGLEWVSAISGTGYTYYADSVKGRFTVSRDNSKNTLFLQMSSLRAEDTAVYYCAITMAPVVWGQGTTVTVSS
VL: SYELTQPPSVSVSPGQTARITCSGDALPKRYAYWYQQKSGQAPILVIYEDKKRPSGIPERLSGSKSGTVATLTISGAQVEDEADYYCYSTDSSGNHAVFGGGTQLTVL
no binding: all assays above
